In article PMC9482650, “Quantitative fragmentomics allow affinity mapping of interactomes” (Nature Communications, 2022) one finds pKd data, which are given here for 4 molecules.

Some targets named below: NHERF2_1, Q15599; MAGI1_4, Q96QZ7; IL16_2, Q14005; MAGI3_4, Q5TCQ9; PREX1_1, Q8TCU6; LMO7, Q8WWI1; DLG2_1, Q15700; MAGI1_5, Q96QZ7; DLG5_2, Q8TDM6; MAGI3_5, Q5TCQ9; RIMS2, Q9UQ26.
Common to all, as to assay: holdup assay
Holding throughout (parameters): key: below the threshold = too weak to quantify, mostly under pKd 3.1 to 4
What all share (conditions): plain residues with an end cap or a label only (N-terminal biotin on a linker: ttds)

Another assay has as its target T1, MPDZ_3, O75970.
T1 sequence (O75970 372-473, limits assumed, looked up): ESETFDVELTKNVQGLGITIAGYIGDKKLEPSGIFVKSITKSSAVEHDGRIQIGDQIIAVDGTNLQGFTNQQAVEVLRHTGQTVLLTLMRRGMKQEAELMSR

Another assay addresses T2, PREX2_2, Q70Z35.
T2 sequence (Q70Z35 672-764, limits assumed, looked up): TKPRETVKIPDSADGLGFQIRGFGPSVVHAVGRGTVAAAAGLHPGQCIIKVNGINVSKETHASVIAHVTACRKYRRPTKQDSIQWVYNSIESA

The target in a further assay is T3, USH1C_3, Q9Y6N9.
T3 sequence (Q9Y6N9 447-547, limits assumed, looked up): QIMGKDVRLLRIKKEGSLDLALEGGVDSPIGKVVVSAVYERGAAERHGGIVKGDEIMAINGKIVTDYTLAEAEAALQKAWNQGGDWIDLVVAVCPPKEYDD

A further assay addresses T4, CNKSR1, Q969H4.
T4 sequence (Q969H4 191-295, limits assumed, looked up): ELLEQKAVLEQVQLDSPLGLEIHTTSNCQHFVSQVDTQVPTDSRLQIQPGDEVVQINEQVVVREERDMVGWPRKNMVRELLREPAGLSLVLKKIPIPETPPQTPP

A further assay has as its target T5, PDZD4, Q76G19.
T5 sequence (Q76G19 125-224, limits assumed, looked up): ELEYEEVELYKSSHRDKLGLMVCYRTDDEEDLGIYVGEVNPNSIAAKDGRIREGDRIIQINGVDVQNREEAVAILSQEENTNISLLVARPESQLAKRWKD

A further assay deals with T6, MPDZ_11, O75970.
T6 sequence (O75970 1720-1817, limits assumed, looked up): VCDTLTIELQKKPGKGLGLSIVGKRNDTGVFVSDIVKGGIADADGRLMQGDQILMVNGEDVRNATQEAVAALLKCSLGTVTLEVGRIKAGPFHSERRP

The next assay has as its target T7, USH1C_1, Q9Y6N9.
T7 sequence (Q9Y6N9 82-179, limits assumed, looked up): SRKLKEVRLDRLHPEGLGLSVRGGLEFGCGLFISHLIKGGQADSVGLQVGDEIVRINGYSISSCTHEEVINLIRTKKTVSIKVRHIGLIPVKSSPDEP

A further assay addresses T8, SYNPO2L, Q9H987.
T8 sequence (Q9H987 1-98, limits assumed, looked up): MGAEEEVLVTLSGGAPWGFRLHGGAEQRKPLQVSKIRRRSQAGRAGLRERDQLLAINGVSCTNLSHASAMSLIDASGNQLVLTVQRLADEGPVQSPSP

Another assay deals with T9, PDZD11, Q5EBL8.
T9 sequence (Q5EBL8 42-139, limits assumed, looked up): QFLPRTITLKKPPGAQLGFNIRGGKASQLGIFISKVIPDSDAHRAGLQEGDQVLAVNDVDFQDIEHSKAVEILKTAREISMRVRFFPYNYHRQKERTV

The target in another assay is T10, PDZD2_4, O15018.
T10 sequence (O15018 723-823, limits assumed, looked up): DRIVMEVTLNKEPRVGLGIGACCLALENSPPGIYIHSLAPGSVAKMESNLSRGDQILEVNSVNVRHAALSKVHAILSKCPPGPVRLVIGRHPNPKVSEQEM

In a further assay the target is T11, SHROOM3, Q8TF72.
T11 sequence (Q8TF72 20-120, limits assumed, looked up): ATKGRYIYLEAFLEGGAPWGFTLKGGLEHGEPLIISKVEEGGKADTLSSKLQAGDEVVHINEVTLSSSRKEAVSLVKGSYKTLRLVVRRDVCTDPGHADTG

In a further assay the target is T12, MLLT4, P55196.
T12 sequence (P55196 1002-1103, limits assumed, looked up): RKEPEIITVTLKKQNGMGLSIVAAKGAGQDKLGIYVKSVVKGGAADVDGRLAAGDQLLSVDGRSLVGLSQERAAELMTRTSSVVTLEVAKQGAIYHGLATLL

In another assay the target is T13, TJP3_2, O95049.
T13 sequence (O95049 190-282, limits assumed, looked up): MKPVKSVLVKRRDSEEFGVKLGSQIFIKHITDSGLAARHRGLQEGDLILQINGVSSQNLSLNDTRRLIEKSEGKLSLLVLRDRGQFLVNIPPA

RIMS2, Q9UQ26, sequence (Q9UQ26 637-758): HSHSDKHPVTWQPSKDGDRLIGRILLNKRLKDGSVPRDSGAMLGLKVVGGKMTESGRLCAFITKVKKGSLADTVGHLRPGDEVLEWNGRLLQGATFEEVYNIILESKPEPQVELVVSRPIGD
PREX1_1, Q8TCU6, sequence (Q8TCU6 608-718): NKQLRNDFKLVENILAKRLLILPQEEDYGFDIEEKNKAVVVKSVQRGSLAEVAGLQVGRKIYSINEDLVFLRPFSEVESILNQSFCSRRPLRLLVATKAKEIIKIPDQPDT
LMO7, Q8WWI1, sequence (Q8WWI1 1037-1138): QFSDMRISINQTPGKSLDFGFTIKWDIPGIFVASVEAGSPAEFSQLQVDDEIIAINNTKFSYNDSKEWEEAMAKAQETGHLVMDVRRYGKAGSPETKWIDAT
MAGI1_4, Q96QZ7, sequence (Q96QZ7 other isoform, or with tags, fused parts or gaps): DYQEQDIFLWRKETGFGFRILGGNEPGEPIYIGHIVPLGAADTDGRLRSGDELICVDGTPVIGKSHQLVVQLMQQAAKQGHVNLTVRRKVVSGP
MAGI1_5, Q96QZ7, sequence (Q96QZ7 986-1098): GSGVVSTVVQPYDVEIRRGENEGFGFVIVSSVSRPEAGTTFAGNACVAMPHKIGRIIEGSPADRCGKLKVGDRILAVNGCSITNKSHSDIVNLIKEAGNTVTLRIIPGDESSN
NHERF2_1, Q15599, sequence (Q15599 9-91): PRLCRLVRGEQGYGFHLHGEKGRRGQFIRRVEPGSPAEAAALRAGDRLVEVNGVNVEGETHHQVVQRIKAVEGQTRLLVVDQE
IL16_2, Q14005, sequence (Q14005 350-450): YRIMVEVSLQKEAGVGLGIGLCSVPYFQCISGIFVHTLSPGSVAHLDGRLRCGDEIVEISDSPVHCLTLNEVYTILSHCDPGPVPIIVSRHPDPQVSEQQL
DLG5_2, Q8TDM6, sequence (Q8TDM6 714-800): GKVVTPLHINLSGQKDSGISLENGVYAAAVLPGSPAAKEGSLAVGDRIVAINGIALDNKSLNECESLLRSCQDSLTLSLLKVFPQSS
MAGI3_4, Q5TCQ9, sequence (Q5TCQ9 716-815): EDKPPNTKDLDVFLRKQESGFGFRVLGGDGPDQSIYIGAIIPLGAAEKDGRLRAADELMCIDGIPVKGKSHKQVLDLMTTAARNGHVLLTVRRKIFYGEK
MAGI3_5, Q5TCQ9, sequence (Q5TCQ9 847-941): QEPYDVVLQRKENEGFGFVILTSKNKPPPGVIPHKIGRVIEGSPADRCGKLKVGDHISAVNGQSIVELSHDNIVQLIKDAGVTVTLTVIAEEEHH

Regarding RSLEEEESQL [GRASP, Q7Z6J2], the pKd entry is “below the threshold” with NHERF2_1, Q15599; “below the threshold” in the assay with MAGI1_4, Q96QZ7; “below the threshold” with MPDZ_3, O75970; “below the threshold” in the assay with PREX2_2, Q70Z35; “below the threshold” with IL16_2, Q14005; “below the threshold” with USH1C_3, Q9Y6N9. Also, the pKd result is “below the threshold” with CNKSR1, Q969H4; “below the threshold” with PDZD4, Q76G19; “below the threshold” with MPDZ_11, O75970; “below the threshold” in the assay with MAGI3_4, Q5TCQ9; “below the threshold” with USH1C_1, Q9Y6N9; 4.08 in the assay with PREX1_1, Q8TCU6. The pKd was 4.14 with LMO7, Q8WWI1; “below the threshold” with DLG2_1, Q15700; “below the threshold” in the assay with SYNPO2L, Q9H987; “below the threshold” with PDZD11, Q5EBL8; “below the threshold” in the assay with PDZD2_4, O15018; “below the threshold” with SHROOM3, Q8TF72. Moreover, the pKd result with MLLT4, P55196 was “below the threshold”; in the assay with MAGI1_5, Q96QZ7 it was “below the threshold”; with DLG5_2, Q8TDM6 it was “below the threshold”; with MAGI3_5, Q5TCQ9, “below the threshold”; with TJP3_2, O95049 it was “below the threshold”; with RIMS2, Q9UQ26, “below the threshold”.

As for SRPQRTQTQV [HPV67-E6, A4U7F2], the pKd result in the assay with NHERF2_1, Q15599 is “below the threshold”; in the assay with MAGI1_4, Q96QZ7, “below the threshold”; with MPDZ_3, O75970 it was “below the threshold”; in the assay with PREX2_2, Q70Z35, “below the threshold”; with IL16_2, Q14005 it was 4.25; with CNKSR1, Q969H4 it was “below the threshold”. Besides, the pKd entry was “below the threshold” with PDZD4, Q76G19; “below the threshold” with MPDZ_11, O75970; “below the threshold” with MAGI3_4, Q5TCQ9; “below the threshold” with USH1C_1, Q9Y6N9; “below the threshold” with PREX1_1, Q8TCU6; 4.25 with DLG2_1, Q15700. Also, the negative logarithm of the Kd (pKd) entry was “below the threshold” with SYNPO2L, Q9H987; “below the threshold” with PDZD11, Q5EBL8; “below the threshold” with PDZD2_4, O15018; “below the threshold” with SHROOM3, Q8TF72; “below the threshold” with MLLT4, P55196; 4.35 with MAGI1_5, Q96QZ7. Moreover, the negative-log Kd (pKd) in the assay with DLG5_2, Q8TDM6 was 4.16; with MAGI3_5, Q5TCQ9, “below the threshold”; with TJP3_2, O95049, “below the threshold”; with RIMS2, Q9UQ26, “below the threshold”.

SVWLRKETRV [CYSLTR2, Q9NS75]: the pKd result is recorded as “below the threshold” in the assay with NHERF2_1, Q15599; “below the threshold” in the assay with MAGI1_4, Q96QZ7; “below the threshold” in the assay with MPDZ_3, O75970; “below the threshold” with PREX2_2, Q70Z35; “below the threshold” in the assay with IL16_2, Q14005; “below the threshold” in the assay with USH1C_3, Q9Y6N9. The pKd result is listed as “below the threshold” with CNKSR1, Q969H4; “below the threshold” in the assay with PDZD4, Q76G19; “below the threshold” with MPDZ_11, O75970; “below the threshold” with MAGI3_4, Q5TCQ9; “below the threshold” with USH1C_1, Q9Y6N9; “below the threshold” with PREX1_1, Q8TCU6. Moreover, the pKd entry in the assay with LMO7, Q8WWI1 was “below the threshold”; in the assay with DLG2_1, Q15700 it was 5.26; with SYNPO2L, Q9H987, “below the threshold”; with PDZD11, Q5EBL8, “below the threshold”; in the assay with PDZD2_4, O15018, 4.48; with SHROOM3, Q8TF72, “below the threshold”. The pKd result was “below the threshold” with MLLT4, P55196; 4.57 with MAGI1_5, Q96QZ7; 4.71 with DLG5_2, Q8TDM6; “below the threshold” in the assay with MAGI3_5, Q5TCQ9; “below the threshold” in the assay with TJP3_2, O95049; “below the threshold” with RIMS2, Q9UQ26.

Regarding SSRTRRETQL [HPV16-E6, P03126], the pKd entry in the assay with NHERF2_1, Q15599 is listed as “below the threshold”; with MAGI1_4, Q96QZ7, “below the threshold”; with MPDZ_3, O75970, “below the threshold”; in the assay with PREX2_2, Q70Z35, “below the threshold”; in the assay with IL16_2, Q14005, “below the threshold”; with USH1C_3, Q9Y6N9, “below the threshold”. Besides, the pKd result is recorded as “below the threshold” with CNKSR1, Q969H4; “below the threshold” with PDZD4, Q76G19; “below the threshold” with MPDZ_11, O75970; “below the threshold” in the assay with MAGI3_4, Q5TCQ9; “below the threshold” with USH1C_1, Q9Y6N9; “below the threshold” with PREX1_1, Q8TCU6. The pKd in the assay with LMO7, Q8WWI1 was 4.15; with DLG2_1, Q15700, 4.92; with SYNPO2L, Q9H987 it was “below the threshold”; with PDZD11, Q5EBL8, “below the threshold”; with PDZD2_4, O15018, “below the threshold”; with SHROOM3, Q8TF72 it was “below the threshold”. Moreover, the pKd entry in the assay with MLLT4, P55196 is “below the threshold”; with MAGI1_5, Q96QZ7 it was 4.69; with DLG5_2, Q8TDM6, 4.12; in the assay with MAGI3_5, Q5TCQ9, 3.96; with TJP3_2, O95049, “below the threshold”; with RIMS2, Q9UQ26, “below the threshold”.

In general, pKd refers to the Kd on a negative log10 scale, so that one unit is a factor of ten.
